PMC5356271, “Identification of a tripartite interaction between the N-terminus of HIV-1 Vif and CBFβ that is critical for Vif function” (Retrovirology, 2017)
Changes are numbered by the printed parent chain. Names may count otherwise.

B1: HIV-1 Vif, wild type (natural protein)
chain: not shown
notes: HIV-1 Vif; Untagged; also called WT Vif; source: 293T, transfected, in lysate
B2: HIV-1 Vif 5WQVM8 > A4 (quadruple-alanine substitution mutant) (natural protein)
chain: not shown
notes: HIV-1 Vif; Untagged; also called 5WQVM8 > 4A; source: 293T, transfected, in lysate
B3: HIV-1 Vif 9IVW11 > A3 (triple-alanine substitution mutant) (natural protein)
chain: not shown
notes: HIV-1 Vif; Untagged; also called 9IVW11 > 3A; source: 293T, transfected, in lysate
B4: HIV-1 Vif W11A (natural protein)
chain: not shown
B5: HIV-1 Vif V7A–M8A (natural protein)
chain: not shown

What was measured:
[1] = target: T1, Flag-CBFβ I55D (UniProt Q13951 1-170, I55D); assay: co-IP; 293T cells co-transfected with Flag-CBFβ (4 μg) and untagged Vif (4 μg); lysates after 48 h; anti-Flag immunoprecipitation; co-precipitated Vif quantified by western blot (Odyssey) relative to wild type set to 100%; for the CBFβ mutants endogenous CBFβ was first knocked down by siRNA against the 3' UTR (Fig. 5, 7) and cells were treated with MG132 (5 μM, 16 h) in Fig. 7; conditions: partners not purified
T1 construct: source: 293T, transfected, in lysate
T1 sequence: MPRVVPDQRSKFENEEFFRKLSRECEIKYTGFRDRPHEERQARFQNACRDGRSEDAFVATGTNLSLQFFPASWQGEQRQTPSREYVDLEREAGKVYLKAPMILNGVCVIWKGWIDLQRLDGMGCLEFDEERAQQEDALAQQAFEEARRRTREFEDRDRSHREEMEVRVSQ

[2] = target: T2, Flag-CBFβ F68D (UniProt Q13951 1-170, F68D); assay: as above; conditions: partners not purified
T2 construct: source: 293T, transfected, in lysate
T2 sequence: T1 sequence with D55I, F68D

[3] = target: T3, Flag-CBFβ I55D–F68D (UniProt Q13951 1-170, I55D | F68D); assay: as above; conditions: partners not purified
T3 construct: source: 293T, transfected, in lysate
T3 sequence: T1 sequence with F68D

[4] = target: T4, Flag-CBFβ I55A–F68D (UniProt Q13951 1-170, I55A | F68D); assay: as above; conditions: partners not purified
T4 construct: source: 293T, transfected, in lysate
T4 sequence: T1 sequence with D55A, F68D

[5] = target: T5, Flag-CBFβ (core-binding factor β), wild type (UniProt Q13951 1-170); assay: as above; conditions: partners not purified
T5 construct: Flag-CBFβ expression plasmid obtained from Addgene; plasmid number not given; also called CBFβ-WT; WT CBFβ; source: 293T, transfected, in lysate
T5 sequence: T1 sequence with D55I

[6] = target: T5, Flag-CBFβ (core-binding factor β), wild …; assay: cell-based or functional assay

Binder	binding efficiency relative to WT Vif (100%) [5] [%]	infectivity of virus produced with A3G in CBFβ-depleted (siRNA) 293T cells, relative to WT Vif with control siRNA (100%) [6] [%]	other results
B1			binding efficiency relative to CBFβ-WT (100%) [1]: ~15%; binding efficiency relative to CBFβ-WT (100%) [2]: ~28%; binding efficiency relative to CBFβ-WT (100%) [3]: ~8%; binding efficiency relative to CBFβ-WT (100%) [4]: ~8%
B2	2		
B3	0.3		
B4		4	
B5		8	
